Reference: patent US20210130436A1

Biological target: PD-1 (PDCD1) (Homo sapiens (Human)) (UniProt Q15116)
Experiment: cell-based or functional assay

Sequence of PD-1 (PDCD1) (Homo sapiens (Human)) (Q15116 21-288): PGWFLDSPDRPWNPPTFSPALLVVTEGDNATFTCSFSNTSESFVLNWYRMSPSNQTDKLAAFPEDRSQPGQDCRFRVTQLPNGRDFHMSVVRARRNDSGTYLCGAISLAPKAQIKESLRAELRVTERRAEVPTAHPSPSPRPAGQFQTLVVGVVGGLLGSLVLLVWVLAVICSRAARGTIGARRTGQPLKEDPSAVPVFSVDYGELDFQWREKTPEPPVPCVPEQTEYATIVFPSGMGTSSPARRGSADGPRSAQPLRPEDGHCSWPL

Binder	IFN gamma levels pg/mL (MLR)
PD-L2 H15Q IgV-Fc (Fc fusion, not shown: a dimerising Fc or GST) LFTVTVPKELYIIEQGSNVTLECNFDTGSHVNLGAITASLQKVENDTSPHRERATLLEEQLPLGKASFHIPQVQVRDEGQYQCIIIYGVAWDYKYLTLKVKA	1820 pg/mL
PD-L2 I13V/H15Q/V31A/N45S/Q82R/V89D IgV-Fc (Fc fusion, not shown: a dimerising Fc or GST) LFTVTVPKELYIVEQGSNVTLECNFDTGSHANLGAITASLQKVESDTSPHRERATLLEEQLPLGKASFHIPQVQVRDEGQYRCIIIYGDAWDYKYLTLKVKA	1720 pg/mL
PD-L2 H15Q/N24S/T47A/Q72H/R76G/V89D IgV-Fc (Fc fusion, not shown: a dimerising Fc or GST) LFTVTVPKELYIIEQGSNVTLECSFDTGSHVNLGAITASLQKVENDASPHRERATLLEEQLPLGKASFHIPHVQVGDEGQYQCIIIYGDAWDYKYLTLKVKA	1090 pg/mL
PD-L2 Q82R/V89D IgV-Fc (Fc fusion, not shown: a dimerising Fc or GST) LFTVTVPKELYIIEHGSNVTLECNFDTGSHVNLGAITASLQKVENDTSPHRERATLLEEQLPLGKASFHIPQVQVRDEGQYRCIIIYGDAWDYKYLTLKVKA	1620 pg/mL
PD-L2 H15Q/S67L/Q72H/R76G/V89D IgV-Fc (Fc fusion, not shown: a dimerising Fc or GST) LFTVTVPKELYIIEQGSNVTLECNFDTGSHVNLGAITASLQKVENDTSPHRERATLLEEQLPLGKALFHIPHVQVGDEGQYQCIIIYGDAWDYKYLTLKVKA	1060 pg/mL
PD-L2 I13V/H15Q/T47A/H69L/R76G/V89D IgV-Fc (Fc fusion, not shown: a dimerising Fc or GST) LFTVTVPKELYIVEQGSNVTLECNFDTGSHVNLGAITASLQKVENDASPHRERATLLEEQLPLGKASFLIPQVQVGDEGQYQCIIIYGDAWDYKYLTLKVKA	1080 pg/mL
PD-L2 I13V/H15Q/T47A/Q72H/R76G/I86T IgV-Fc (Fc fusion, not shown: a dimerising Fc or GST) LFTVTVPKELYIVEQGSNVTLECNFDTGSHVNLGAITASLQKVENDASPHRERATLLEEQLPLGKASFHIPHVQVGDEGQYQCIITYGVAWDYKYLTLKVKA	1090 pg/mL
PD-L2 H15Q/V31M/S67L/Q82R/V89D IgV-Fc (Fc fusion, not shown: a dimerising Fc or GST) LFTVTVPKELYIIEQGSNVTLECNFDTGSHMNLGAITASLQKVENDTSPHRERATLLEEQLPLGKALFHIPQVQVRDEGQYRCIIIYGDAWDYKYLTLKVKA	1210 pg/mL
PD-L2 I13V/H15Q/T47A/R76G/V89D IgV-Fc (Fc fusion, not shown: a dimerising Fc or GST) LFTVTVPKELYIVEQGSNVTLECNFDTGSHVNLGAITASLQKVENDASPHRERATLLEEQLPLGKASFHIPQVQVGDEGQYQCIIIYGDAWDYKYLTLKVKA	1250 pg/mL
PD-L2 I13V/S39I/E44D/Q82R/V89D IgV-Fc (Fc fusion, not shown: a dimerising Fc or GST) LFTVTVPKELYIVEHGSNVTLECNFDTGSHVNLGAITAILQKVDNDTSPHRERATLLEEQLPLGKASFHIPQVQVRDEGQYRCIIIYGDAWDYKYLTLKVKA	936 pg/mL
PD-L2 I13V/H15Q/Q72H/R76G/I86T IgV-Fc (Fc fusion, not shown: a dimerising Fc or GST) LFTVTVPKELYIVEQGSNVTLECNFDTGSHVNLGAITASLQKVENDTSPHRERATLLEEQLPLGKASFHIPHVQVGDEGQYQCIITYGVAWDYKYLTLKVKA	1220 pg/mL
PD-L2 H15Q/T47A/H69L/Q82R/V89D IgV-Fc (Fc fusion, not shown: a dimerising Fc or GST) LFTVTVPKELYIIEQGSNVTLECNFDTGSHVNLGAITASLQKVENDASPHRERATLLEEQLPLGKASFLIPQVQVRDEGQYRCIIIYGDAWDYKYLTLKVKA	1730 pg/mL
PD-L2 H15Q/Q82R/V89D IgV-Fc (Fc fusion, not shown: a dimerising Fc or GST) LFTVTVPKELYIIEQGSNVTLECNFDTGSHVNLGAITASLQKVENDTSPHRERATLLEEQLPLGKASFHIPQVQVRDEGQYRCIIIYGDAWDYKYLTLKVKA	1080 pg/mL
PD-L2 I13V/H15Q/S39I/E44D/S67L IgV-Fc (Fc fusion, not shown: a dimerising Fc or GST) LFTVTVPKELYIVEQGSNVTLECNFDTGSHVNLGAITAILQKVDNDTSPHRERATLLEEQLPLGKALFHIPQVQVRDEGQYQCIIIYGVAWDYKYLTLKVKA	1260 pg/mL
PD-L2 H15Q/S67L/I86T IgV-Fc (Fc fusion, not shown: a dimerising Fc or GST) LFTVTVPKELYIIEQGSNVTLECNFDTGSHVNLGAITASLQKVENDTSPHRERATLLEEQLPLGKALFHIPQVQVRDEGQYQCIITYGVAWDYKYLTLKVKA	1030 pg/mL
PD-L2 I13V/H15Q/T47A/E58G/S67L/Q82R/V89D IgV-Fc (Fc fusion, not shown: a dimerising Fc or GST) LFTVTVPKELYIVEQGSNVTLECNFDTGSHVNLGAITASLQKVENDASPHRERATLLGEQLPLGKALFHIPQVQVRDEGQYRCIIIYGDAWDYKYLTLKVKA	836 pg/mL
PD-L2 E44D/V89D/W91R IgV-Fc (Fc fusion, not shown: a dimerising Fc or GST) LFTVTVPKELYIIEHGSNVTLECNFDTGSHVNLGAITASLQKVDNDTSPHRERATLLEEQLPLGKASFHIPQVQVRDEGQYQCIIIYGDARDYKYLTLKVKA	1560 pg/mL
PD-L2 N32D/S67L/V89D IgV-Fc (Fc fusion, not shown: a dimerising Fc or GST) LFTVTVPKELYIIEHGSNVTLECNFDTGSHVDLGAITASLQKVENDTSPHRERATLLEEQLPLGKALFHIPQVQVRDEGQYQCIIIYGDAWDYKYLTLKVKA	1190 pg/mL
PD-L2 V89D IgV-Fc (Fc fusion, not shown: a dimerising Fc or GST) LFTVTVPKELYIIEHGSNVTLECNFDTGSHVNLGAITASLQKVENDTSPHRERATLLEEQLPLGKASFHIPQVQVRDEGQYQCIIIYGDAWDYKYLTLKVKA	1170 pg/mL

Binder	IFN gamma levels pg/mL (MLR)
PD-L2 H15Q/T47A/Q72H/R76G/I86T IgV-Fc (Fc fusion, not shown: a dimerising Fc or GST) LFTVTVPKELYIIEQGSNVTLECNFDTGSHVNLGAITASLQKVENDASPHRERATLLEEQLPLGKASFHIPHVQVGDEGQYQCIITYGVAWDYKYLTLKVKA	1600 pg/mL
PD-L2 H15Q/S39I/S67L/V89D IgV-Fc (Fc fusion, not shown: a dimerising Fc or GST) LFTVTVPKELYIIEQGSNVTLECNFDTGSHVNLGAITAILQKVENDTSPHRERATLLEEQLPLGKALFHIPQVQVRDEGQYQCIIIYGDAWDYKYLTLKVKA	1230 pg/mL
PD-L2 H15Q/T47A/S67L/R76G/Q82R/V89D IgV-Fc (Fc fusion, not shown: a dimerising Fc or GST) LFTVTVPKELYIIEQGSNVTLECNFDTGSHVNLGAITASLQKVENDASPHRERATLLEEQLPLGKALFHIPQVQVGDEGQYRCIIIYGDAWDYKYLTLKVKA	1100 pg/mL
PD-L2 G28V/Q72H/R76G/I86T IgV-Fc (Fc fusion, not shown: a dimerising Fc or GST) LFTVTVPKELYIIEHGSNVTLECNFDTVSHVNLGAITASLQKVENDTSPHRERATLLEEQLPLGKASFHIPHVQVGDEGQYQCIITYGVAWDYKYLTLKVKA	1780 pg/mL
PD-L2 I13V/H15Q/R76G/D77N/Q82R/V89D IgV-Fc (Fc fusion, not shown: a dimerising Fc or GST) LFTVTVPKELYIVEQGSNVTLECNFDTGSHVNLGAITASLQKVENDTSPHRERATLLEEQLPLGKASFHIPQVQVGNEGQYRCIIIYGDAWDYKYLTLKVKA	1190 pg/mL
PD-L2 F2L/H15Q/D46E/T47A/Q72H/R76G/Q82R/V89D IgV-Fc (Fc fusion, not shown: a dimerising Fc or GST) LLTVTVPKELYIIEQGSNVTLECNFDTGSHVNLGAITASLQKVENEASPHRERATLLEEQLPLGKASFHIPHVQVGDEGQYRCIIIYGDAWDYKYLTLKVKA	1170 pg/mL
PD-L2 I13V/H15Q/Q82R/V89D IgV-Fc (Fc fusion, not shown: a dimerising Fc or GST) LFTVTVPKELYIVEQGSNVTLECNFDTGSHVNLGAITASLQKVENDTSPHRERATLLEEQLPLGKASFHIPQVQVRDEGQYRCIIIYGDAWDYKYLTLKVKA	1600 pg/mL
PD-L2 I13V/H15Q/T37A/E44D/S48C/S67L/Q82R/V89D IgV-Fc (Fc fusion, not shown: a dimerising Fc or GST) LFTVTVPKELYIVEQGSNVTLECNFDTGSHVNLGAIAASLQKVDNDTCPHRERATLLEEQLPLGKALFHIPQVQVRDEGQYRCIIIYGDAWDYKYLTLKVKA	1750 pg/mL
PD-L2 H15Q/N18D/T47A/Q72H/V73A/R76G/I86T/V89D IgV-Fc (Fc fusion, not shown: a dimerising Fc or GST) LFTVTVPKELYIIEQGSDVTLECNFDTGSHVNLGAITASLQKVENDASPHRERATLLEEQLPLGKASFHIPHAQVGDEGQYQCIITYGDAWDYKYLTLKVKA	1070 pg/mL
PD-L2 S67L/I86T IgV-Fc (Fc fusion, not shown: a dimerising Fc or GST) LFTVTVPKELYIIEHGSNVTLECNFDTGSHVNLGAITASLQKVENDTSPHRERATLLEEQLPLGKALFHIPQVQVRDEGQYQCIITYGVAWDYKYLTLKVKA	1020 pg/mL
PD-L2 H15Q/S39I/E44D/Q72H/V75G/R76G/Q82R/V89D IgV-Fc (Fc fusion, not shown: a dimerising Fc or GST) LFTVTVPKELYIIEQGSNVTLECNFDTGSHVNLGAITAILQKVDNDTSPHRERATLLEEQLPLGKASFHIPHVQGGDEGQYRCIIIYGDAWDYKYLTLKVKA	941 pg/mL
PD-L2 S67L/V89D IgV-Fc (Fc fusion, not shown: a dimerising Fc or GST) LFTVTVPKELYIIEHGSNVTLECNFDTGSHVNLGAITASLQKVENDTSPHRERATLLEEQLPLGKALFHIPQVQVRDEGQYQCIIIYGDAWDYKYLTLKVKA	1230 pg/mL
PD-L2 I13V/S67L/V89D IgV-Fc (Fc fusion, not shown: a dimerising Fc or GST) LFTVTVPKELYIVEHGSNVTLECNFDTGSHVNLGAITASLQKVENDTSPHRERATLLEEQLPLGKALFHIPQVQVRDEGQYQCIIIYGDAWDYKYLTLKVKA	868 pg/mL
PD-L2 I13V/H15Q/V89D IgV-Fc (Fc fusion, not shown: a dimerising Fc or GST) LFTVTVPKELYIVEQGSNVTLECNFDTGSHVNLGAITASLQKVENDTSPHRERATLLEEQLPLGKASFHIPQVQVRDEGQYQCIIIYGDAWDYKYLTLKVKA	1120 pg/mL
PD-L2 H15Q/T47A/S67L/Q82R/V89D IgV-Fc (Fc fusion, not shown: a dimerising Fc or GST) LFTVTVPKELYIIEQGSNVTLECNFDTGSHVNLGAITASLQKVENDASPHRERATLLEEQLPLGKALFHIPQVQVRDEGQYRCIIIYGDAWDYKYLTLKVKA	1200 pg/mL
PD-L2 I13V/H15Q/T47A/Q82R IgV-Fc (Fc fusion, not shown: a dimerising Fc or GST) LFTVTVPKELYIVEQGSNVTLECNFDTGSHVNLGAITASLQKVENDASPHRERATLLEEQLPLGKASFHIPQVQVRDEGQYRCIIIYGVAWDYKYLTLKVKA	1700 pg/mL
PD-L2 H15Q/T47A IgV-Fc (Fc fusion, not shown: a dimerising Fc or GST) LFTVTVPKELYIIEQGSNVTLECNFDTGSHVNLGAITASLQKVENDASPHRERATLLEEQLPLGKASFHIPQVQVRDEGQYQCIIIYGVAWDYKYLTLKVKA	1640 pg/mL
PD-L2 H15Q/Q72H/Q74R/R76G/I86T IgV-Fc (Fc fusion, not shown: a dimerising Fc or GST) LFTVTVPKELYIIEQGSNVTLECNFDTGSHVNLGAITASLQKVENDTSPHRERATLLEEQLPLGKASFHIPHVRVGDEGQYQCIITYGVAWDYKYLTLKVKA	934 pg/mL
